The text below walks through data of patent US20120107329.

Sequence of recombinant human zonulin/pre-HP2 with a 6×His tag at the C-terminus, from baculovirus-infected Sf9 cells (P00738 19-406, tags left off): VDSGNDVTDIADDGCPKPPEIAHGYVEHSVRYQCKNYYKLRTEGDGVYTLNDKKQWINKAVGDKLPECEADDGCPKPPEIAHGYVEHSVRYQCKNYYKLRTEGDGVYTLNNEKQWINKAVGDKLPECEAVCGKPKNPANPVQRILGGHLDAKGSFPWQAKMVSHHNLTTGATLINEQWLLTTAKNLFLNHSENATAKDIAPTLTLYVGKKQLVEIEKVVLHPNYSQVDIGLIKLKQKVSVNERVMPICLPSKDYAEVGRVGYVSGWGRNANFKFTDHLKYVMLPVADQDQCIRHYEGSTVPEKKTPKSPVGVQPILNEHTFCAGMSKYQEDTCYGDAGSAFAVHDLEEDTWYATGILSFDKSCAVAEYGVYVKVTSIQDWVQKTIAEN

This data set addresses recombinant human zonulin/pre-HP2 with a 6×His tag at the C-terminus, from baculovirus-infected Sf9 cells (UniProt P00738).
In the case of matriptase, the “proteolytic cleavage, SDS-PAGE” value is “Matriptase, urokinase, thrombin, and plasma kallikrein did not cleave pre-HP2”.
In the case of plasma kallikrein, the “proteolytic cleavage, SDS-PAGE” value is “Matriptase, urokinase, thrombin, and plasma kallikrein did not cleave pre-HP2”.
As to plasmin, the “proteolytic cleavage, SDS-PAGE” value is “plasmin caused complete degradation of the protein”.
Regarding thrombin, the “proteolytic cleavage, SDS-PAGE” value was “Matriptase, urokinase, thrombin, and plasma kallikrein did not cleave pre-HP2”.
Consider “trypsin (intestinal serine protease; trypsin-agarose beads, Sigma T-1763)”, for which the “proteolytic cleavage, SDS-PAGE” value is “treatment with the intestinal serine protease trypsin led to the appearance of two major bands that migrated with molecular weights compatible with the a2 and b subunits of zonulin”.
Regarding urokinase, the “proteolytic cleavage, SDS-PAGE” value is “Matriptase, urokinase, thrombin, and plasma kallikrein did not cleave pre-HP2”.
